This passage reports abundance fitness results from the Human Domainome abundance scans (Beltran et al. 2025).

± gives the uncertainty stated by the source.

The labels stand for the following.
B1: Membrane-associated guanylate kinase, WW and PDZ domain-containing protein 3, residues 287 to 329; numbered along this chain, Q5TCQ9 (parent)
chain: MRDETLEPLPKNWEMAYTDTGMIYFIDHNTKTTTWLDPRLCKK

In the data set the parent is B1. Description: abundance fitness (aPCA) (normalised: wild type 0, dead -1); higher = more abundant; growth selection in yeast, the domain comes from the species named. The following applies: Homo sapiens.
As to L6E, the abundance fitness is -0.029 ± 0.053.

Regarding L6D, the abundance fitness was -0.086 ± 0.061.

Turning to L6M, the abundance fitness was -0.067 ± 0.069.

L6K: the abundance fitness is -0.128 ± 0.13.

Consider L6I, for which the abundance fitness is 0.141 ± 0.22.

As to L6H, the abundance fitness was -0.249 ± 0.07.

Consider L6V, for which the abundance fitness was -0.024 ± 0.031.

With L6W, the abundance fitness is -0.108 ± 0.039.

Consider L6F, for which the abundance fitness was -0.13 ± 0.19.

Take L6P: the abundance fitness is -0.068 ± 0.039.

For the variant L6G, the abundance fitness amounted to 0.001 ± 0.032.

Take L6S: the abundance fitness is 0.034 ± 0.034.

In the case of L6Q, the abundance fitness came out at 0.103 ± 0.071.

Consider L6A, for which the abundance fitness is 0.016 ± 0.036.

For L6Y, the abundance fitness was -0.156 ± 0.052.

As to N12H, the abundance fitness was -0.185 ± 0.08.

With N12K, the abundance fitness was -0.155 ± 0.044.

As for N12G, the abundance fitness worked out at 0.018 ± 0.032.

As for N12P, the abundance fitness is -0.383 ± 0.054.

For the variant N12E, the abundance fitness was -0.22 ± 0.049.

As to N12Q, the abundance fitness is -0.237 ± 0.046.

For N12V, the abundance fitness was -0.89 ± 0.071.

Regarding N12M, the abundance fitness is -0.229 ± 0.06.

In the case of N12I, the abundance fitness is -0.96 ± 0.11.

Regarding N12L, the abundance fitness was -0.247 ± 0.035.

For the variant N12F, the abundance fitness is -0.198 ± 0.049.

Consider N12W, for which the abundance fitness is -0.412 ± 0.045.

For the variant N12D, the abundance fitness was -0.081 ± 0.039.

Take N12T: the abundance fitness was -0.438 ± 0.073.

Regarding N12C, the abundance fitness was -0.257 ± 0.14.

On to N12A, for which the abundance fitness is -0.191 ± 0.034.

For the variant N12R, the abundance fitness was -0.215 ± 0.033.

N12S: the abundance fitness is -0.213 ± 0.038.

Regarding E4L, the abundance fitness is -0.09 ± 0.04.

In the case of E4Y, the abundance fitness was -0.319 ± 0.11.

As to E4W, the abundance fitness was -0.515 ± 0.057.

For the variant E4C, the abundance fitness is -0.062 ± 0.038.

Take E4F: the abundance fitness was -0.097 ± 0.068.

On to E4G, for which the abundance fitness was -0.113 ± 0.03.

As to E4K, the abundance fitness was -0.107 ± 0.065.

Take E4M: the abundance fitness is -0.11 ± 0.043.

In the case of E4P, the abundance fitness is -0.095 ± 0.045.

On to E4S, for which the abundance fitness was -0.043 ± 0.045.

Consider E4H, for which the abundance fitness was -0.174 ± 0.063.

Turning to E4D, the abundance fitness was -0.115 ± 0.055.

E4R: the abundance fitness is -0.091 ± 0.03.

As for E4Q, the abundance fitness is -0.04 ± 0.035.

As to E4A, the abundance fitness is -0.09 ± 0.038.

With A16G, the abundance fitness is -0.149 ± 0.031.

Regarding A16H, the abundance fitness is -0.514 ± 0.092.

Regarding A16V, the abundance fitness is -0.193 ± 0.042.

As to A16D, the abundance fitness was -0.257 ± 0.042.

As for A16E, the abundance fitness was -0.278 ± 0.04.

Consider A16K, for which the abundance fitness was -0.067 ± 0.055.

A16Q: the abundance fitness is -0.15 ± 0.039.

A16L: the abundance fitness is -0.297 ± 0.04.

In the case of A16P, the abundance fitness was -0.914 ± 0.063.

Turning to A16N, the abundance fitness was -0.318 ± 0.086.

Regarding A16R, the abundance fitness is -0.076 ± 0.032.

As to A16M, the abundance fitness was -0.36 ± 0.058.

With P8K, the abundance fitness was -0.069 ± 0.041.

In the case of P8D, the abundance fitness was -0.087 ± 0.05.

As to P8G, the abundance fitness was -0.13 ± 0.03.

As to P8A, the abundance fitness is -0.065 ± 0.034.

Consider P8W, for which the abundance fitness was -0.367 ± 0.042.

As to P8T, the abundance fitness was -0.162 ± 0.061.

In the case of P8C, the abundance fitness was -0.332 ± 0.24.

In the case of P8V, the abundance fitness was -0.187 ± 0.035.

In the case of P8E, the abundance fitness is -0.078 ± 0.076.

Take P8R: the abundance fitness is -0.112 ± 0.031.

P8S: the abundance fitness was -0.325 ± 0.11.

Turning to P8Q, the abundance fitness is -0.15 ± 0.053.

On to P8M, for which the abundance fitness was -0.255 ± 0.056.

Regarding P8Y, the abundance fitness was -0.395 ± 0.13.

Take P10D: the abundance fitness is -0.527 ± 0.13.

As for P10Q, the abundance fitness is -0.505 ± 0.048.

For P10C, the abundance fitness is -0.54 ± 0.11.

P10H: the abundance fitness is -0.677 ± 0.087.

P10S: the abundance fitness was -0.496 ± 0.037.

On to P10L, for which the abundance fitness was -0.613 ± 0.046.

As to P10A, the abundance fitness was -0.392 ± 0.038.

Consider P10E, for which the abundance fitness is -0.456 ± 0.057.

P10T: the abundance fitness is -0.462 ± 0.053.

On to P10F, for which the abundance fitness was -0.831 ± 0.071.

Take P10W: the abundance fitness is -0.837 ± 0.058.

For P10V, the abundance fitness is -0.816 ± 0.089.

For P10R, the abundance fitness is -0.685 ± 0.034.

Regarding P10I, the abundance fitness was -0.854 ± 0.12.

T20N: the abundance fitness is -0.132 ± 0.27.

Consider T20P, for which the abundance fitness is -0.48 ± 0.05.

Turning to T20M, the abundance fitness was -0.153 ± 0.042.

For T20W, the abundance fitness was -0.328 ± 0.054.

For T20S, the abundance fitness was -0.023 ± 0.053.

Turning to T20I, the abundance fitness was -0.24 ± 0.053.

Take T20E: the abundance fitness turned out to be 0.017 ± 0.037.

For the variant T20G, the abundance fitness is -0.025 ± 0.028.

Take T20C: the abundance fitness is -0.077 ± 0.04.

Turning to T20D, the abundance fitness was -0.054 ± 0.07.

For the variant T20H, the abundance fitness was -0.345 ± 0.22.

As for T20Y, the abundance fitness was -0.256 ± 0.067.

As for L9S, the abundance fitness was -0.621 ± 0.045.

In the case of L9K, the abundance fitness is -0.683 ± 0.087.

Consider L9E, for which the abundance fitness is -0.566 ± 0.052.

On to L9R, for which the abundance fitness was -0.639 ± 0.058.

L9A: the abundance fitness is -0.691 ± 0.095.

With L9W, the abundance fitness is -0.492 ± 0.073.

Take L9Q: the abundance fitness was -0.566 ± 0.057.

On to L9M, for which the abundance fitness is -0.106 ± 0.054.

With L9V, the abundance fitness is -0.337 ± 0.036.

Consider L9G, for which the abundance fitness is -0.681 ± 0.034.

For the variant L9C, the abundance fitness was -0.721 ± 0.23.

Regarding R2L, the abundance fitness is -0.072 ± 0.054.

Consider R2K, for which the abundance fitness is -0.045 ± 0.073.

As to R2G, the abundance fitness is -0.054 ± 0.043.

Take R2C: the abundance fitness is -0.046 ± 0.048.

For the variant R2W, the abundance fitness was -0.226 ± 0.038.

Take R2T: the abundance fitness was -0.002 ± 0.033.

For R2M, the abundance fitness was -0.015 ± 0.077.

Take R2V: the abundance fitness is -0.091 ± 0.033.

On to R2F, for which the abundance fitness is -0.171 ± 0.049.

For the variant R2A, the abundance fitness was -0.088 ± 0.039.

Turning to R2E, the abundance fitness is -0.05 ± 0.038.

In the case of R2S, the abundance fitness is -0.164 ± 0.044.

In the case of R2N, the abundance fitness is -0.021 ± 0.046.

As for R2I, the abundance fitness is -0.122 ± 0.055.

Turning to M22C, the abundance fitness is -0.028 ± 0.11.

As for M22G, the abundance fitness turned out to be 0.006 ± 0.031.

M22A: the abundance fitness amounted to 0.081 ± 0.029.

Consider M22E, for which the abundance fitness is 0.144 ± 0.044.

As to M22H, the abundance fitness is -0.137 ± 0.06.

In the case of M22K, the abundance fitness was 0.075 ± 0.07.

In the case of M22D, the abundance fitness was 0.084 ± 0.054.

Turning to M22L, the abundance fitness is -0.043 ± 0.04.

With M15L, the abundance fitness is -0.066 ± 0.035.

Take M15R: the abundance fitness is -0.013 ± 0.034.

M15Q: the abundance fitness is -0.007 ± 0.035.

With M15P, the abundance fitness was -0.11 ± 0.079.

M15C: the abundance fitness was -0.097 ± 0.053.

With M15Y, the abundance fitness was -0.186 ± 0.051.

As for M15D, the abundance fitness was -0.379 ± 0.041.

On to M15H, for which the abundance fitness is -0.156 ± 0.062.

Turning to M15G, the abundance fitness was -0.334 ± 0.034.

Regarding M15K, the abundance fitness was -0.037 ± 0.05.

With M15I, the abundance fitness turned out to be 0.036 ± 0.24.

In the case of M15V, the abundance fitness is -0.093 ± 0.035.

On to M15S, for which the abundance fitness was -0.047 ± 0.042.

Turning to M15F, the abundance fitness was -0.189 ± 0.036.

M15T: the abundance fitness is -0.039 ± 0.051.

Consider M15A, for which the abundance fitness is -0.043 ± 0.038.

For the variant M15W, the abundance fitness was -0.283 ± 0.053.

On to M15E, for which the abundance fitness was -0.062 ± 0.051.

Take W13D: the abundance fitness is -0.773 ± 0.096.

In the case of W13R, the abundance fitness was -0.634 ± 0.04.

As for W13A, the abundance fitness is -0.668 ± 0.036.

Take W13E: the abundance fitness is -0.683 ± 0.045.

For W13G, the abundance fitness is -0.696 ± 0.033.

For W13L, the abundance fitness was -0.635 ± 0.046.

As for W13Q, the abundance fitness is -0.729 ± 0.068.

In the case of W13S, the abundance fitness is -0.698 ± 0.096.

Take W13T: the abundance fitness is -0.475 ± 0.042.

As to W13F, the abundance fitness was -0.221 ± 0.17.

W13P: the abundance fitness was -0.715 ± 0.073.

Take W13I: the abundance fitness is -0.431 ± 0.059.

Regarding W13K, the abundance fitness was -0.67 ± 0.064.

In the case of W13V, the abundance fitness is -0.303 ± 0.03.

Regarding W13C, the abundance fitness was -0.636 ± 0.063.

For the variant W13M, the abundance fitness was -0.398 ± 0.041.
